Data as given in PMC3846889, “Interacting Proteins on Human Spermatozoa: Adaptive Evolution of the Binding of Semenogelin I to EPPIN” (PLoS ONE, 2013).

T1: biotinylated SEMG1^214-42 (human, UniProt P04279-1 26-281, biotin (biotinylated as in ref. 23; sites not stated))
T1 construct: semenogelin I (SEMG1), human, residues G26-R281; The same construct as m2, biotinylated; also called bt-SEMG1; source: E. coli BL21 Star (DE3), purified under denaturing conditions (Ni-NTA), then biotinylated
T1 sequence (looked up): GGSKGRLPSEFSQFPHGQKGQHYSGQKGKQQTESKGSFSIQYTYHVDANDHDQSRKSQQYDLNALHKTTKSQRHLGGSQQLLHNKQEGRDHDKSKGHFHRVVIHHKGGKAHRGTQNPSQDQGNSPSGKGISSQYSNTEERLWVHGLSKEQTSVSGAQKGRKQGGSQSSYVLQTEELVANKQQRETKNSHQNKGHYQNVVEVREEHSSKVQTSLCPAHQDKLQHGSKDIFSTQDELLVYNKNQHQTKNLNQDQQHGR

B1: human recombinant EPPIN (residues P22-P133) (domain or fragment)
chain: not shown
notes: EPPIN, human, residues P22-P133, cloned into pET100/D-TOPO; also called tag-free EPPIN; source: E. coli Rosetta-Gami 2 (DE3), purified under denaturing conditions (Ni-NTA); 6X His-tag removed with enterokinase; not shown: His6, N-terminal, cleaved

Key:
[1] = target: B1; test: cell-based or functional assay
[2] = target: B1; test: AlphaScreen or HTRF; competition: EPPIN (10 nM) and bt-SEMG1^214-42 (1 nM) with increasing SEMG1 competitor (10 pM - 8 µM), 30 µl, 15 µg/ml beads; as in ref. 23; conditions: both partners purified
[3] = target: B1; test: AlphaScreen or HTRF; direct binding, concentration-response: EPPIN (29 nM) on anti-EPPIN Q20E antibody (2 nM) and Protein A acceptor beads; His-tagged SEMG1 construct (0.04-7.5 µM) on Ni-NTA-chelate donor beads; 10 µg/ml beads, 30 µl; EC50 from the specific signal after 16 h; conditions: both partners purified
[4] = target: T1, biotinylated SEMG1^214-42; test: AlphaScreen or HTRF; competition: EPPIN (10 nM) and bt-SEMG1^214-42 (1 nM) with increasing SEMG1 competitor (10 pM - 8 µM), 30 µl, 15 µg/ml beads; as in ref. 23; conditions: both partners purified

Row | Binder | inhibition of human sperm motility (normalized iRMI by CASA), concentration-response, EC50 [1] [nM] | IC50 [2] [nM] | EC50 [3] [nM] | binding result [4]
1 | QRETKNSHQNKGHYQNVVEVREEHSSKVQTSLCPAHQDKLQ (domain or fragment, human, UniProt P04279-1 207-247, looked up) [recombinant SEMG1^32-8 (residues Q207-Q247)] | 1750 | – | – | –
2 | human recombinant SEMG1^214-42 (wild-type, residues G26-R281) (domain or fragment, UniProt P04279-1 26-281, looked up, semenogelin I (SEMG1), human, residues G26-R281, cloned into pET100/D-TOPO; also called his-SEMG1; semenogelin I fragment G26-R281; source: E. coli BL21 Star (DE3), purified under denaturing conditions (Ni-NTA); not shown: His6, N-terminal, kept) GGSKGRLPSEFSQFPHGQKGQHYSGQKGKQQTESKGSFSIQYTYHVDANDHDQSRKSQQYDLNALHKTTKSQRHLGGSQQLLHNKQEGRDHDKSKGHFHRVVIHHKGGKAHRGTQNPSQDQGNSPSGKGISSQYSNTEERLWVHGLSKEQTSVSGAQKGRKQGGSQSSYVLQTEELVANKQQRETKNSHQNKGHYQNVVEVREEHSSKVQTSLCPAHQDKLQHGSKDIFSTQDELLVYNKNQHQTKNLNQDQQHGR | 1690 | 8.1 | 23.1 | –
3 | C239G-SEMG1^214-42 (domain or fragment, human, UniProt P04279-1 26-281, looked up, semenogelin I (SEMG1), human, residues G26-R281 with C239G; Point mutant of m2; source: E. coli BL21 Star (DE3), purified under denaturing conditions (Ni-NTA); not shown: His6, N-terminal, kept) GGSKGRLPSEFSQFPHGQKGQHYSGQKGKQQTESKGSFSIQYTYHVDANDHDQSRKSQQYDLNALHKTTKSQRHLGGSQQLLHNKQEGRDHDKSKGHFHRVVIHHKGGKAHRGTQNPSQDQGNSPSGKGISSQYSNTEERLWVHGLSKEQTSVSGAQKGRKQGGSQSSYVLQTEELVANKQQRETKNSHQNKGHYQNVVEVREEHSSKVQTSLGPAHQDKLQHGSKDIFSTQDELLVYNKNQHQTKNLNQDQQHGR | – | – | 83.3 | –
4 | C239S-SEMG1^214-42 (domain or fragment, human, UniProt P04279-1 26-281, looked up, semenogelin I (SEMG1), human, residues G26-R281 with C239S; Point mutant of m2; source: E. coli BL21 Star (DE3), purified under denaturing conditions (Ni-NTA); not shown: His6, N-terminal, kept) GGSKGRLPSEFSQFPHGQKGQHYSGQKGKQQTESKGSFSIQYTYHVDANDHDQSRKSQQYDLNALHKTTKSQRHLGGSQQLLHNKQEGRDHDKSKGHFHRVVIHHKGGKAHRGTQNPSQDQGNSPSGKGISSQYSNTEERLWVHGLSKEQTSVSGAQKGRKQGGSQSSYVLQTEELVANKQQRETKNSHQNKGHYQNVVEVREEHSSKVQTSLSPAHQDKLQHGSKDIFSTQDELLVYNKNQHQTKNLNQDQQHGR | – | – | 564 | –
5 | C239D-SEMG1^214-42 (domain or fragment, human, UniProt P04279-1 26-281, looked up, semenogelin I (SEMG1), human, residues G26-R281 with C239D; Point mutant of m2; source: E. coli BL21 Star (DE3), purified under denaturing conditions (Ni-NTA); not shown: His6, N-terminal, kept) GGSKGRLPSEFSQFPHGQKGQHYSGQKGKQQTESKGSFSIQYTYHVDANDHDQSRKSQQYDLNALHKTTKSQRHLGGSQQLLHNKQEGRDHDKSKGHFHRVVIHHKGGKAHRGTQNPSQDQGNSPSGKGISSQYSNTEERLWVHGLSKEQTSVSGAQKGRKQGGSQSSYVLQTEELVANKQQRETKNSHQNKGHYQNVVEVREEHSSKVQTSLDPAHQDKLQHGSKDIFSTQDELLVYNKNQHQTKNLNQDQQHGR | – | – | 96.1 | –
6 | C239R-SEMG1^214-42 (domain or fragment, human, UniProt P04279-1 26-281, looked up, semenogelin I (SEMG1), human, residues G26-R281 with C239R (Arg239 is the residue of Macaca mulatta and Papio anubis); Point mutant of m2; source: E. coli BL21 Star (DE3), purified under denaturing conditions (Ni-NTA); not shown: His6, N-terminal, kept) GGSKGRLPSEFSQFPHGQKGQHYSGQKGKQQTESKGSFSIQYTYHVDANDHDQSRKSQQYDLNALHKTTKSQRHLGGSQQLLHNKQEGRDHDKSKGHFHRVVIHHKGGKAHRGTQNPSQDQGNSPSGKGISSQYSNTEERLWVHGLSKEQTSVSGAQKGRKQGGSQSSYVLQTEELVANKQQRETKNSHQNKGHYQNVVEVREEHSSKVQTSLRPAHQDKLQHGSKDIFSTQDELLVYNKNQHQTKNLNQDQQHGR | 2210 | – | 461 | –
7 | C239H-SEMG1^214-42 (domain or fragment, human, UniProt P04279-1 26-281, looked up, semenogelin I (SEMG1), human, residues G26-R281 with C239H (His239 is the Gorilla residue); Point mutant of m2; source: E. coli BL21 Star (DE3), purified under denaturing conditions (Ni-NTA); not shown: His6, N-terminal, kept) GGSKGRLPSEFSQFPHGQKGQHYSGQKGKQQTESKGSFSIQYTYHVDANDHDQSRKSQQYDLNALHKTTKSQRHLGGSQQLLHNKQEGRDHDKSKGHFHRVVIHHKGGKAHRGTQNPSQDQGNSPSGKGISSQYSNTEERLWVHGLSKEQTSVSGAQKGRKQGGSQSSYVLQTEELVANKQQRETKNSHQNKGHYQNVVEVREEHSSKVQTSLHPAHQDKLQHGSKDIFSTQDELLVYNKNQHQTKNLNQDQQHGR | 1080 | – | 167 | –
8 | B1 | – | – | – | binds
9 | recombinant SEMG1^74-42 (residues R165-R281) (domain or fragment, human, UniProt P04279-1 165-281, looked up, semenogelin I (SEMG1), human, residues R165-R281, in pET100/D-TOPO; source: E. coli BL21 Star (DE3), purified under denaturing conditions (Ni-NTA); not shown: His6, N-terminal, kept) RLWVHGLSKEQTSVSGAQKGRKQGGSQSSYVLQTEELVANKQQRETKNSHQNKGHYQNVVEVREEHSSKVQTSLCPAHQDKLQHGSKDIFSTQDELLVYNKNQHQTKNLNQDQQHGR | 3560 | 124 | – | –
10 | recombinant SEMG1^74-8 (residues R165-Q247) (domain or fragment, human, UniProt P04279-1 165-247, looked up, semenogelin I (SEMG1), human, residues R165-Q247, in pET100/D-TOPO; also called fragment 74-8; source: E. coli BL21 Star (DE3), purified under denaturing conditions (Ni-NTA); not shown: His6, N-terminal, kept) RLWVHGLSKEQTSVSGAQKGRKQGGSQSSYVLQTEELVANKQQRETKNSHQNKGHYQNVVEVREEHSSKVQTSLCPAHQDKLQ | – | 385 | – | –
